# In patent US8840891 (RSR, dated 2014):
# Legend:
# Test in all cases: cell-based or functional assay
# [1] = biological target: TSHR with Lys58 mutated to Alanine (human) (UniProt P16473)
# [2] = biological target: human TSHR (wild type) expressed in CHO cells (human) (UniProt P16473)
# [3] = biological target: human TSHR Asp203Ala, expressed in CHO cells (human) (UniProt P16473)
# [4] = biological target: human TSHR expressed on CHO cells (human) (UniProt P16473)
# [5] = biological target: human TSHR with Asp276 mutated to Alanine, expressed in CHO cells (human) (UniProt P16473)
# [6] = biological target: wild type human TSHR (human) (UniProt P16473)
# Chain of 5C9 IgG (antibody) (VH): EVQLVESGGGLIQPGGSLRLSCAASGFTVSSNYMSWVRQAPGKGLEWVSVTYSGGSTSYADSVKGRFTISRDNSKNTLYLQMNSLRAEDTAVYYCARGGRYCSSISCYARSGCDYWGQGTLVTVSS
# Chain of 5C9 IgG (antibody) (VL): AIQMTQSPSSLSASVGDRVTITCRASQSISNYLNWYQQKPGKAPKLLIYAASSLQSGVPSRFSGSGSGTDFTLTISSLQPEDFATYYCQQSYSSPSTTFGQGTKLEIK
substance,measurement,setting,value
5C9 IgG (antibody),Mutated/wild type (%); 5C9 0.01 µg/mL + TSH,[1],108%
same,Mutated/wild type (%); 5C9 0.1 µg/mL + TSH,[1],104%
same,Mutated/wild type (%); 5C9 1.0 µg/mL + TSH,[1],195%
same,Mutated/wild type (%); 5C9 10 µg/mL + TSH,[1],272%
same,Mutated/wild type (%); 5C9 100 µg/mL + TSH,[1],190%
same,cyclic AMP; 5C9 0.01 µg/mL + TSH (fmol/cell well),[1],7910
same,cyclic AMP; 5C9 0.1 µg/mL + TSH (fmol/cell well),[1],4820
same,cyclic AMP; 5C9 1.0 µg/mL + TSH (fmol/cell well),[1],1790
same,cyclic AMP; 5C9 10 µg/mL + TSH (fmol/cell well),[1],955
same,cyclic AMP; 5C9 100 µg/mL + TSH (fmol/cell well),[1],1000
same,cyclic AMP; 5C9 100 µg/mL only (fmol/cell well),[1],< 25
same,% inhibition of TSH stimulated cyclic AMP level; pTSH 3 ng/mL + 1 µg/mL 5C9,[2],92%
same,Cyclic AMP produced; 5C9 0.01 µg/mL + pTSH 3 ng/mL; Experiment 1 (fmol/cell well),[2],17200
same,Cyclic AMP produced; 5C9 0.01 µg/mL + pTSH 3 ng/mL; Experiment 2 (fmol/cell well),[2],14100
same,Cyclic AMP produced; 5C9 0.1 µg/mL + pTSH 3 ng/mL; Experiment 1 (fmol/cell well),[2],5590
same,Cyclic AMP produced; 5C9 0.1 µg/mL + pTSH 3 ng/mL; Experiment 2 (fmol/cell well),[2],4460
same,Cyclic AMP produced; 5C9 1.0 µg/mL + pTSH 3 ng/mL; Experiment 1 (mean of duplicate determinations) (fmol/cell well),[2],759
same,Cyclic AMP produced; 5C9 1.0 µg/mL + pTSH 3 ng/mL; Experiment 2 (fmol/cell well),[2],657
same,Cyclic AMP produced; 5C9 10 µg/mL + pTSH 3 ng/mL; Experiment 1 (fmol/cell well),[2],366
same,Cyclic AMP produced; 5C9 10 µg/mL + pTSH 3 ng/mL; Experiment 2 (fmol/cell well),[2],541
same,Cyclic AMP produced; 5C9 100 µg/mL + pTSH 3 ng/mL; Experiment 1 (fmol/cell well),[2],344
same,Cyclic AMP produced; 5C9 100 µg/mL + pTSH 3 ng/mL; Experiment 2 (fmol/cell well),[2],286
same,Cyclic AMP produced; 5C9 100 µg/mL only (no TSH); Experiment 1 (fmol/cell well),[2],300
same,Cyclic AMP produced; 5C9 100 µg/mL only (no TSH); Experiment 2 (fmol/cell well),[2],208
same,cyclic AMP concentration; pTSH 3 ng/mL + 1 µg/mL 5C9 (fmol/cell well),[2],1110
same,% inhibition of TSH stimulated cyclic AMP level; pTSH 3 ng/mL + 1 µg/mL 5C9,[3],4%
same,cyclic AMP concentration; pTSH 3 ng/mL + 1 µg/mL 5C9 (mean of duplicate samples) (fmol/cell well),[3],9400
same,"Cyclic AMP, serum T1 + 0.001 µg/mL 5C9 IgG (fmol/cell well)",[4],16900
same,"Cyclic AMP, serum T1 + 0.01 µg/mL 5C9 IgG (fmol/cell well)",[4],20300
same,"Cyclic AMP, serum T1 + 0.1 µg/mL 5C9 IgG (fmol/cell well)",[4],16200
same,"Cyclic AMP, serum T1 + 1 µg/mL 5C9 IgG (fmol/cell well)",[4],2430
same,"Cyclic AMP, serum T1 + 10 µg/mL 5C9 IgG (fmol/cell well)",[4],1120
same,"Cyclic AMP, serum T3 + 0.001 µg/mL 5C9 IgG (fmol/cell well)",[4],11600
same,"Cyclic AMP, serum T3 + 0.01 µg/mL 5C9 IgG (fmol/cell well)",[4],13700
same,"Cyclic AMP, serum T3 + 0.1 µg/mL 5C9 IgG (fmol/cell well)",[4],10400
same,"Cyclic AMP, serum T3 + 1 µg/mL 5C9 IgG (fmol/cell well)",[4],8080
same,"Cyclic AMP, serum T3 + 10 µg/mL 5C9 IgG (fmol/cell well)",[4],7810
same,"Cyclic AMP, serum T6 + 0.001 µg/mL 5C9 IgG (fmol/cell well)",[4],11800
same,"Cyclic AMP, serum T6 + 0.01 µg/mL 5C9 IgG (fmol/cell well)",[4],13900
same,"Cyclic AMP, serum T6 + 0.1 µg/mL 5C9 IgG (fmol/cell well)",[4],9530
same,"Cyclic AMP, serum T6 + 1 µg/mL 5C9 IgG (fmol/cell well)",[4],2370
same,"Cyclic AMP, serum T6 + 10 µg/mL 5C9 IgG (fmol/cell well)",[4],1030
same,"Cyclic AMP, serum T19 + 0.001 µg/mL 5C9 IgG (mean of duplicate) (fmol/cell well)",[4],6470
same,"Cyclic AMP, serum T19 + 0.01 µg/mL 5C9 IgG (fmol/cell well)",[4],5750
same,"Cyclic AMP, serum T19 + 0.1 µg/mL 5C9 IgG (fmol/cell well)",[4],375
same,"Cyclic AMP, serum T19 + 1 µg/mL 5C9 IgG (fmol/cell well)",[4],187
same,"Cyclic AMP, serum T19 + 10 µg/mL 5C9 IgG (fmol/cell well)",[4],275
same,"Cyclic AMP, serum T20 + 0.001 µg/mL 5C9 IgG (mean of duplicate) (fmol/cell well)",[4],4860
same,"Cyclic AMP, serum T20 + 0.01 µg/mL 5C9 IgG (fmol/cell well)",[4],6490
same,"Cyclic AMP, serum T20 + 0.1 µg/mL 5C9 IgG (fmol/cell well)",[4],2180
same,Cyclic AMP produced; 5C9 0.01 µg/mL + pTSH 3 ng/mL; Experiment 1 (fmol/cell well),[5],26200
same,Cyclic AMP produced; 5C9 0.01 µg/mL + pTSH 3 ng/mL; Experiment 2 (fmol/cell well),[5],21200
same,Cyclic AMP produced; 5C9 0.1 µg/mL + pTSH 3 ng/mL; Experiment 1 (fmol/cell well),[5],16900
same,Cyclic AMP produced; 5C9 0.1 µg/mL + pTSH 3 ng/mL; Experiment 2 (fmol/cell well),[5],7320
same,Cyclic AMP produced; 5C9 1.0 µg/mL + pTSH 3 ng/mL; Experiment 1 (fmol/cell well),[5],4790
same,Cyclic AMP produced; 5C9 1.0 µg/mL + pTSH 3 ng/mL; Experiment 2 (fmol/cell well),[5],1510
same,Cyclic AMP produced; 5C9 10 µg/mL + pTSH 3 ng/mL; Experiment 1 (fmol/cell well),[5],1380
same,Cyclic AMP produced; 5C9 10 µg/mL + pTSH 3 ng/mL; Experiment 2 (fmol/cell well),[5],1300
same,Cyclic AMP produced; 5C9 100 µg/mL + pTSH 3 ng/mL; Experiment 1 (fmol/cell well),[5],565
same,Cyclic AMP produced; 5C9 100 µg/mL + pTSH 3 ng/mL; Experiment 2 (fmol/cell well),[5],288
same,Cyclic AMP produced; 5C9 100 µg/mL only (no TSH); Experiment 1 (fmol/cell well),[5],602
same,Cyclic AMP produced; 5C9 100 µg/mL only (no TSH); Experiment 2 (fmol/cell well),[5],314
same,Mutated/wild type (%) of cyclic AMP; 5C9 0.01 µg/mL + pTSH 3 ng/mL; Experiment 1,[5],152%
same,Mutated/wild type (%) of cyclic AMP; 5C9 0.01 µg/mL + pTSH 3 ng/mL; Experiment 2,[5],151%
same,Mutated/wild type (%) of cyclic AMP; 5C9 0.1 µg/mL + pTSH 3 ng/mL; Experiment 1,[5],301%
same,Mutated/wild type (%) of cyclic AMP; 5C9 0.1 µg/mL + pTSH 3 ng/mL; Experiment 2,[5],164%
same,Mutated/wild type (%) of cyclic AMP; 5C9 1.0 µg/mL + pTSH 3 ng/mL; Experiment 1,[5],631%
same,Mutated/wild type (%) of cyclic AMP; 5C9 1.0 µg/mL + pTSH 3 ng/mL; Experiment 2,[5],230%
same,Mutated/wild type (%) of cyclic AMP; 5C9 10 µg/mL + pTSH 3 ng/mL; Experiment 1,[5],378%
same,Mutated/wild type (%) of cyclic AMP; 5C9 10 µg/mL + pTSH 3 ng/mL; Experiment 2,[5],240%
same,Mutated/wild type (%) of cyclic AMP; 5C9 100 µg/mL + pTSH 3 ng/mL; Experiment 1,[5],164%
same,Mutated/wild type (%) of cyclic AMP; 5C9 100 µg/mL + pTSH 3 ng/mL; Experiment 2,[5],101%
same,Mutated/wild type (%) of cyclic AMP; 5C9 100 µg/mL only (no TSH); Experiment 1,[5],201%
same,Mutated/wild type (%) of cyclic AMP; 5C9 100 µg/mL only (no TSH); Experiment 2,[5],151%
same,cyclic AMP; 100 µg/mL 5C9 IgG only (fmol/cell well),[6],253
same,cyclic AMP; 5C9 0.01 µg/mL + TSH (fmol/cell well),[6],7340
same,cyclic AMP; 5C9 0.1 µg/mL + TSH (fmol/cell well),[6],4640
same,cyclic AMP; 5C9 1.0 µg/mL + TSH (fmol/cell well),[6],918
same,cyclic AMP; 5C9 10 µg/mL + TSH (fmol/cell well),[6],351
same,cyclic AMP; 5C9 100 µg/mL + TSH (fmol/cell well),[6],528
same,cyclic AMP; 5C9 100 µg/mL only (fmol/cell well),[6],47
same,cyclic AMP; T21 + 0.001 µg/mL 5C9 IgG (fmol/cell well),[6],11300
same,cyclic AMP; T21 + 0.01 µg/mL 5C9 IgG (fmol/cell well),[6],10400
same,cyclic AMP; T21 + 0.1 µg/mL 5C9 IgG (fmol/cell well),[6],7480
same,cyclic AMP; T21 + 1 µg/mL 5C9 IgG (fmol/cell well),[6],418
same,cyclic AMP; T21 + 10 µg/mL 5C9 IgG (fmol/cell well),[6],303
same,cyclic AMP; T21 + 100 µg/mL 5C9 IgG (fmol/cell well),[6],210
